# According to IntAct's records for PubMed 20600852:
# B1: Inhibitor of nuclear factor kappa-B kinase subunit beta (Homo sapiens), O14920 (parent)
# chain: MSWSPSLTTQTCGAWEMKERLGTGGFGNVIRWHNQETGEQIAIKQCRQELSPRNRERWCLEIQIMRRLTHPNVVAARDVPEGMQNLAPNDLPLLAMEYCQGGDLRKYLNQFENCCGLREGAILTLLSDIASALRYLHENRIIHRDLKPENIVLQQGEQRLIHKIIDLGYAKELDQGSLCTSFVGTLQYLAPELLEQQKYTVTVDYWSFGTLAFECITGFRPFLPNWQPVQWHSKVRQKSEVDIVVSEDLNGTVKFSSSLPYPNNLNSVLAERLEKWLQLMLMWHPRQRGTDPTYGPNGCFKALDDILNLKLVHILNMVTGTIHTYPVTEDESLQSLKARIQQDTGIPEEDQELLQEAGLALIPDKPATQCISDGKLNEGHTLDMDLVFLFDNSKITYETQISPRPQPESVSCILQEPKRNLAFFQLRKVWGQVWHSIQTLKEDCNRLQQGQRAAMMNLLRNNSCLSKMKNSMASMSQQLKAKLDFFKTSIQIDLEKYSEQTEFGITSDKLLLAWREMEQAVELCGRENEVKLLVERMMALQTDIVDLQRSPMGRKQGGTLDDLEEQARELYRRLREKPRDQRTEGDSQEMVRLLLQAIQSFEKKVRVIYTQLSKTVVCKQKALELLPKVEEVVSLMNEDEKTVVRLQEKRQKELWNLLKIACSKVRGPVSGSPDSMNASRLSQPGQLMSQPSTASNSLPEPAKKSEELVAEAHNLCTLLENAIQDTVREQDQSFTALDWSWLQTEEEEHSCLEQAS
# Variants of: B1
# Settings: with keap1_human KEAP1, Q14145
# keap1_human KEAP1, Q14145, sequence (Q14145 whole entry): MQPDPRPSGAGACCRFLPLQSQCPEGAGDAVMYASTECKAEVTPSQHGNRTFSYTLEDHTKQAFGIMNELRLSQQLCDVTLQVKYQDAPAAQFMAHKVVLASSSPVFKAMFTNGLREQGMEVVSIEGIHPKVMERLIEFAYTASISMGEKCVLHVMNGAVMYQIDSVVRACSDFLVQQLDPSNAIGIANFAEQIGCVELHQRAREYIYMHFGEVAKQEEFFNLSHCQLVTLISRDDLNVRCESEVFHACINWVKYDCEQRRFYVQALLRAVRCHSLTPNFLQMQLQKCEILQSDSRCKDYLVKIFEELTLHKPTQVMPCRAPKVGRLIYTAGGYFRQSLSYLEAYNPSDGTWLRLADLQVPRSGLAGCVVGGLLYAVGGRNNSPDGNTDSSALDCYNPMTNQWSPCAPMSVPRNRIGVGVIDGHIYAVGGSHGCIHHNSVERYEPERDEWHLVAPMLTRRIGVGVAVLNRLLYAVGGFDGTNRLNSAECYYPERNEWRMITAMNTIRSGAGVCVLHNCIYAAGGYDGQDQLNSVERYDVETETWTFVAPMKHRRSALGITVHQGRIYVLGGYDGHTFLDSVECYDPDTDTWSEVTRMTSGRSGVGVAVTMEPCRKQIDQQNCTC
row,Variant,effect of a mutation on the interaction
1,E39G,decreasing interaction
